Assay results: US20220332804A1 (CSL INNOVATION, published 2022)
Substitutions are numbered along the chain they refer to.

Tests used:
Assay in all cases: SPR, KD relative to WT C2;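 also: biacore SPR at 37 °C, anti-C2 mAbs captured on anti-human IgG chips with alanine or serine point mutants of C2 as analyte, KD from 1:1 fit compared with wild-type C2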
human C2 M452A = target: T1, human C2 M452A (human, UniProt P06681 21-752)
T1 sequence: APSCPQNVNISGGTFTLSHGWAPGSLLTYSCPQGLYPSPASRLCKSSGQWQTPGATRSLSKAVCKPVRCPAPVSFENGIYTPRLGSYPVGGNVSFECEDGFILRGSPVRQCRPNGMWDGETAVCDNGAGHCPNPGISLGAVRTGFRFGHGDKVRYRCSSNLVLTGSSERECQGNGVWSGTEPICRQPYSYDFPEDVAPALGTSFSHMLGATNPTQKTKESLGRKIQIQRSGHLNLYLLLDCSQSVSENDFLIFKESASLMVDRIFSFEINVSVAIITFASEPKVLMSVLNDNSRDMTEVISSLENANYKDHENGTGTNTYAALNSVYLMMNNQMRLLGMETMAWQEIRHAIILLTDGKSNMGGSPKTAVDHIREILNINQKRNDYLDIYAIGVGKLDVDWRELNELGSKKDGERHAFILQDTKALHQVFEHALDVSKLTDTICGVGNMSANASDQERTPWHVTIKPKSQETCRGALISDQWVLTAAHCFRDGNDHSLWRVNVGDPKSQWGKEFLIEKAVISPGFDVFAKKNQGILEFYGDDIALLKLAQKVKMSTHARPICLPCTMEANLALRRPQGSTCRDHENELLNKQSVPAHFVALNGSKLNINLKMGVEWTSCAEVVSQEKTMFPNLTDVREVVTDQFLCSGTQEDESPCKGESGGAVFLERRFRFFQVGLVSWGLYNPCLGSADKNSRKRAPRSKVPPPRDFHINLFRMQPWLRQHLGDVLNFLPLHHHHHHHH

human C2 I272A = target: T2, human C2 I272A (human, UniProt P06681 21-752)
T2 sequence: T1 sequence with I252A, A432M

human C2 R434A = target: T3, human C2 R434A (human, UniProt P06681 21-752)
T3 sequence: T1 sequence with R414A, A432M

human C2 G432A = target: T4, human C2 G432A (human, UniProt P06681 21-752)
T4 sequence: T1 sequence with G412A, A432M

B1: RF16-242 (antibody, human IgG4 S228P, lambda, V domains shown)
VH: EVQLLQSGAEVKKPGESLKISCKGSGYSFTSYWIGWVRQMPGKGLEWMGIIYPGDSDTRYSPSFQGQVTISADKSISTAYLQWSSLKASDTAMYYCARRGHYGDYFDYWGQGTLVTVSS
VL: SYELTQPPSVSVSPGQTARITCSGDALPKKYAYWYHQKSGQAPVLVIYEDRRRPSEIPERFSGSSSGTMATLTITGAQVEDEGVYFCYSRDRAGNQRVFGGGTQLTVLG
notes: pH-dependent anti-C2 antibody from a phage display library
Fold diff (human C2 M452A): 1 fold | Fold diff (human C2 I272A): 1 fold | Fold diff (human C2 R434A): 14 fold | Fold diff (human C2 G432A): 1 fold
